Paper PMC6886297

Legend:
YFP‐labeled Bcl‐xl [1] = target: YFP‐labeled Bcl‐xl (UniProt Q07817); experiment: FRET or BRET; live-cell FRET two-hybrid assay (E-FRET and 3^3-FRET) in HeLa cells coexpressing CFP-Mff and YFP-Bcl-xl, 50 µM Z-VAD-FMK; cytoplasm of cells with punctate Mff and Bcl-xl distribution (ROI 3)
YFP‐labeled Bcl‐xl [2] = target: YFP‐labeled Bcl‐xl (UniProt Q07817); experiment: FRET or BRET; live-cell FRET two-hybrid assay (E-FRET and 3^3-FRET) in HeLa cells coexpressing CFP-Mff and YFP-Bcl-xl, 50 µM Z-VAD-FMK; cytoplasm of cells with filamentous Mff and Bcl-xl distribution (ROI 1)
YFP‐labeled Bcl‐xl [3] = target: YFP‐labeled Bcl‐xl (UniProt Q07817); experiment: FRET or BRET; live-cell FRET two-hybrid assay (E-FRET and 3^3-FRET) in HeLa cells coexpressing CFP-Mff and YFP-Bcl-xl, 50 µM Z-VAD-FMK; fragmented mitochondrial region of cells with punctate distribution (ROI 4)
YFP‐labeled Bcl‐xl [4] = target: YFP‐labeled Bcl‐xl (UniProt Q07817); experiment: FRET or BRET; live-cell FRET two-hybrid assay (E-FRET and 3^3-FRET) in HeLa cells coexpressing CFP-Mff and YFP-Bcl-xl, 50 µM Z-VAD-FMK; tubular mitochondrial region of cells with filamentous distribution (ROI 2)

Sequence of UniProt Q07817 (Q07817 whole entry, the tested form may be a part): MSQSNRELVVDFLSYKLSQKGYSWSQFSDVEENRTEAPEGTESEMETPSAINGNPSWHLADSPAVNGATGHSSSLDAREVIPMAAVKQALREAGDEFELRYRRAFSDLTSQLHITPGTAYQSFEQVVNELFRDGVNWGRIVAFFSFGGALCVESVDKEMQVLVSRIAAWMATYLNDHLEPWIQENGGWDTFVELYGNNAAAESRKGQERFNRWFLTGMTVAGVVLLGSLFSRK

- EA (acceptor-centric FRET efficiency) (YFP‐labeled Bcl‐xl [1]): 0.072
- ED (donor-centric FRET efficiency) (YFP‐labeled Bcl‐xl [1]): 0.041
- stoichiometry N (YFP‐labeled Bcl‐xl [1]): 0.643 Bcl‐xl/Mff
- EA (acceptor-centric FRET efficiency) (YFP‐labeled Bcl‐xl [2]): 0.151
- ED (donor-centric FRET efficiency) (YFP‐labeled Bcl‐xl [2]): 0.086
- stoichiometry N (YFP‐labeled Bcl‐xl [2]): 0.586 Bcl‐xl/Mff
- EA (acceptor-centric FRET efficiency) (YFP‐labeled Bcl‐xl [3]): 0.115
- ED (donor-centric FRET efficiency) (YFP‐labeled Bcl‐xl [3]): 0.109
- stoichiometry N (YFP‐labeled Bcl‐xl [3]): 0.924 Bcl‐xl/Mff
- EA (acceptor-centric FRET efficiency) (YFP‐labeled Bcl‐xl [4]): 0.071
- ED (donor-centric FRET efficiency) (YFP‐labeled Bcl‐xl [4]): 0.067
- stoichiometry N (YFP‐labeled Bcl‐xl [4]): 0.97 Bcl‐xl/Mff
Substance: CFP‐labeled Mff (mitochondrial fission factor) (from UniProt Q9GZY8 1-342) (natural protein)
